These results are taken from patent US20210379147A1, “METHOD AND SYSTEM FOR TREATING CANCER UTILIZING TINAGL1” (The Trustees of Princeton University, priority 2018, published 2021).

One assay relates to LM2 cells. In words: Experimental lung metastasis after intravenous injection of LM2 cells, BLI and nodule count. It counts as in vivo, NSG mice. As for the experimental part:
FIG. 6 is a graph of lung metastasis burden measured by BLI every week, for NSG mice under one of three treatment regimens: 1) PBS immediately following injection (510), 2) PBS for the first two weeks followed by r-Tinagl1 treatment (520), and 3) r-Tinagl1 immediately after injection (530).
Referring to FIG. 6, to further evaluate the therapeutic potential of r-Tinagl1 treatment during metastasis, LM2 cells were injected intravenously to generate lung metastasis, and the mice were separated into three distinct treatment groups: 1) PBS immediately following injection (510), 2) PBS for the first two weeks followed by r-Tinagl1 treatment (520), and 3) r-Tinagl1 immediately after injection (530).
For xenograft studies, 8-weeks immunocompromised NOD Scid Gamma (NSG) or immunocompetent FVB females were used. Cells were suspended in 10 μl of PBS for mammary gland injection (MFP), or were suspended in 100 μl of PBS for intravenous injection. For human patient-derived xenograft (PDX, HCL001, kindly provided by Dr. Alana Welm) study, we followed the standard protocol for PDX transplantation, maintenance and digestion of the tumors (DeRose et al., 2011). 2×10^4 cells were suspended in 10 μl of PBS and subjected to MFP injection. For recombinant Tinagl1 (r-Tinagl1), ATN-161, Erlotinib treatments, the mice were injected with 30 μg/mouse, 30 μg/mouse, and 100 mg/kg respectively twice per week via tail-vein. Primary tumors were quantified once per week via caliper measurement. All cell lines used for lung metastasis experiments were stably labeled with a firefly luciferase expressing vector and were monitored by weekly bioluminescent imaging (BLI). At protocol-defined endpoints, lungs were dissected and fixed in bouin's solution and the metastatic lesions were counted.

The next assay concerns EGFR and FAK pathways. In words: EGFR and FAK pathway activation in SUM159-M1a cells on FN (WB, FIG. 12). It counts as cell-based, human. The procedure:
FIG. 12 is an image of WB analyses where a 6-well plate was coated with 10 μg/ml of FN or 10 μg/ml of FN+r-Tinagl1, then SUM159-M1a cells were serum starved for 24 hr, and then seeded on the plate with the media contain 10% FBS and 1 ng/ml of EGF, and then 3 hr after seeding, the cells were treated with […] FAK inhibitor 14 (FAKi) for 2 hr, followed by 1 hr treatment of 100 nM Erlotinib (Erlo), 1 μg/ml r-Tinagl1 alone or combined, and finally the cells were treated with 1 ng/ml of EGF for another 10 min, and then collected for WB analysis.
Furthermore, p-AKT and p-ERK levels were lowered in r-Tinagl1 treated samples that samples treated with either FAK inhibitor 14 (FAKi) and or EGFR inhibitor Erlotinib (Erlo) alone.

In assay [1] the target is T1, EGFR extracellular domain recombinant protein (Homo sapiens, UniProt P00533).
T1 construct: EGFR extracellular domain recombinant protein was purchased from Novoprotein (CI61); purchased Novoprotein CI61
In words: IP between recombinant Tinagl1 and recombinant His-tagged EGFR protein. The note with it: 5 μg each protein in PBS, IP with His antibody. It is filed as binding. As for the experimental part: FIG. 13B is an image of a WB assay where 5 μg each of recombinant His-tagged EGFR protein and recombinant Tinagl1 protein were added into 1.5 ml of PBS. 100 μl of combined solution was transferred to a new tube and served as input, and the rest was split into two tubes and IP with 2 μg of IgG or His antibody respectively; the IP samples were washed with PBS and analyzed with WB.
Immunoprecipitation (IP) and western blotting (WB) analysis. For an IP experiment, cells were collected in 1.5 ml EP tube when they reached to 100% confluency in 10 or 15 cm dish as indicated. 1 ml of IP lysis buffer (20 mM Tris pH7.4, 0.15 M NaCl, 1 mM EDTA, 1 mM EGTA, 1% Tx-100) with complete protease inhibitor cocktail (Roche, 14493900) was added and put on ice for 20 min. Meanwhile, culture media was 100× concentrated and mixed with the cell lysates. The samples were centrifuged, 100 μl of the supernatant was transferred to a new tube as input, and the rest was incubated with 2 μg of IgG, anti-HA, anti-Myc, anti-Integrin subunit β1, anti-Integrin subunit α5 or anti-EGFR (as indicated in each experiment) overnight at 4° C. (recombinant proteins may be added at this step as indicated in each experiment). 30 μL of protein A/G agarose beads (Santa Cruz, sc-2003) was then added in each sample for another 2 hours at 4° C. the next day. […] The IP samples were washed with PBS and analyzed with WB. […]

B1: r-Tinagl1: full length recombinant human Tinagl1 with 6×His tag at the C-terminus [SEQ ID NO.: 24], expressed in HEK293T cells (protein, listed as Homo sapiens)
chain: MWRCPLGLLLLLPLAGHLALGAQQGRGRRELAPGLHLRGIRDAGGRYCQEQDLCCRGRADDCALPYLGAICYCDLFCNRTVSDCCPDFWDFCLGVPPPFPPIQGCMHGGRIYPVLGTYWDNCNRCTCQENRQWQCDQEPCLVDPDMIKAINQGNYGWQAGNHSAFWGMTLDEGIRYRLGTIRPSSSVMNMHEIYTVLNPGEVLPTAFEASEKWPNLIHEPLDQGNCAGSWAFSTAAVASDRVSIHSLGHMTPVLSPQNLLSCDTHQQQGCRGGRLDGAWWFLRRRGVVSDHCYPFSGRERDEAGPAPPCMMHSRAMGRGKRQATAHCPNSYVNNNDIYQVTPVYRLGSNDKEIMKELMENGPVQALMEVHEDFFLYKGGIYSHTPVSLGRPERYRRHGTHSVKITGWGEETLPDGRTLKYWTAANSWGPAWGERGHFRIVRGVNECDIESFVLGVWGRVGMEDMGHHVDHHHHHH
modifications: C-terminal 6xHis tag
For B1, the “metastatic growth (BLI)” value in the assay on LM2 cells (PBS for the first two weeks followed by r-Tinagl1 treatment) was “dramatically decreased metastatic growth”; with LM2 cells (r-Tinagl1 immediately after injection (continuous)), “significantly reduced metastatic growth”. Also, in the assay on LM2 cells (both r-Tinagl1 treatment groups, end of experiment), the “number of lung metastasis nodules” value is “significantly reduced number of lung metastasis nodules”. In the assay on EGFR and FAK pathways (1 μg/ml r-Tinagl1, 1 hr), the “activation of EGFR and FAK pathways (p-EGFR, p-FAK, p-ERK, p-AKT)” value was “inhibited the activation of both EGFR and FAK pathways”. For the same molecule, in the assay on EGFR and FAK pathways (FAKi, 100 nM Erlo, 1 μg/ml r-Tinagl1), the “p-AKT and p-ERK levels versus FAKi or Erlo alone” value is listed as “lowered”. The “direct interaction with EGFR” value in assay [1] is reported as “confirmed the direct interaction”.
